According to patent US20220306710A1 (YEDA RESEARCH AND DEVELOPMENT, published 2022):
Where no end group is shown, it is not given here.

T1: Tau2 peptide labelled with rhodamine (human, also: rhodamine isothiocyanate label, site not given here)
T1 construct: also called Tau2R; Tau-2R
T1 peptide: KPGGGQVEVKSEKLDFK

T2: Tau1 peptide labelled with rhodamine (human, also: rhodamine isothiocyanate label, site not given here)
T2 construct: also called Tau1R; Tau-1R
T2 peptide: GLGDRKDQGGYTMHQD


Tests used:
[1] = target: T1, Tau2 peptide labelled with rhodamine; assay: dot blot of mixed labelled peptides on nitrocellulose
From the text: (§1) FIGS. 2A-B. Confirmation of APP and Tau peptide binding by visualization and ELISA. A) Visualization of APP and Tau peptide binding labelled by fluorescein (F) or rhodamine (R). Single labelled peptides were loaded on nitrocellulose membrane [upper row (F) and middle row (R)]. Mixtures were loaded (lower row) from left to right: APP1F+Tau1R, APP1F+Tau2R, APP2F+Tau1R and APP2F+Tau2R. Last sample was a control of APP2F+APP1R. […] B) Peptide inhibition of Tau and APP protein binding. An ELISA plate was coated with Tau protein overnight (ON) at 4° C. PBS, single peptides or their combinations were incubated ON at 4° C. as well. Next day, the plate was washed and blocked with PBS+3% BSA for two hours at RT. The plate was washed again with PBS. Single peptides or their combinations were added to the coated plate for four hours at RT. The plate was washed and APP protein was added to all wells for ON incubation at 4° C. The plate was then washed and anti Aß was added, to test the ability of the different peptides to affect APP protein binding to the Tau coated plate. The plate was developed with anti-mouse HRP (materials and methods section). Samples were in triplicates. Significance labelled as p≤0.05*, p≤0.008**.
(§2) All four candidate peptides were labelled with fluorescein. APP1, Tau1 and Tau2 were also labelled with rhodamine for visualization of peptide binding.

[2] = target: T2, Tau1 peptide labelled with rhodamine; assay: as above
From the text: as §1, §2

Row | binding result [1] | binding result [2] | Binder
1 | no binding | no binding | ATVIVITLVMLKKKQYTS (also: fluorescein isothiocyanate label, site not given here, also called APP2F) [APP2 peptide labelled with fluorescein]
2 | binds | binds | HFQKAKERLEAKHRERMSQVMRE (also: fluorescein isothiocyanate label, site not given here, also called APP1F; App1F) [APP1 peptide labelled with fluorescein]
